Measurements published in patent US20020065210A1 (Genentech, published 2002).
Blank lines part the entries; values can stand above or below the molecule they belong to.

T1: Fc-tagged ectodomain of TNFR1 (UniProt P19438 30-211, limits assumed)
T1 construct: extracellular domain; Control immunoadhesin; also called Fc-tagged TNFR1; not shown: Fc tag
T1 sequence (looked up): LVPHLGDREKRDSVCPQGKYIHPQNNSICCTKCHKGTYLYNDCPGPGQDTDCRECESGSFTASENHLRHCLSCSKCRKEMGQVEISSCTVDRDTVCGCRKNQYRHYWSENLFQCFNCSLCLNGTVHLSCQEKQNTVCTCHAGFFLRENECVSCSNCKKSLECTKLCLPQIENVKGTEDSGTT

T2: OPG (also referred to as TRANCE, RANKL), full-length, expressed from pRK5 on transiently transfected 293 cells (UniProt O14788 1-317, limits assumed)
T2 construct: whole, on cells
T2 sequence (looked up): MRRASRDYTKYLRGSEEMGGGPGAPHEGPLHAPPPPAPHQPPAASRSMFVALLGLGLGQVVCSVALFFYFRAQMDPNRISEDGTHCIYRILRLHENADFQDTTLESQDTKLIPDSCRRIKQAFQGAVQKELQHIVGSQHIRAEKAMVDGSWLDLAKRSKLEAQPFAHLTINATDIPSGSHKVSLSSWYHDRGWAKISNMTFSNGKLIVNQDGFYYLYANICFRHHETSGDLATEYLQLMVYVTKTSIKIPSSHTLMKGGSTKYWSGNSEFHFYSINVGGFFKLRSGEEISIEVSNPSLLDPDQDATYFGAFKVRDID

B1: full-length Apo-3 ligand (also referred to as TWEAK) expressed from pRK5 on transiently transfected 293 cells (ligand, UniProt O43508 1-249, looked up)
chain: MAARRSQRRRGRRGEPGTALLVPLALGLGLALACLGLLLAVVSLGSRASLSAQEPAQEELVAEEDQDPSELNPQTEESQDPAPFLNRLVRPRRSAPKGRKTRARRAIAAHYEVHPRPGQDGAQAGVDGTVSGWEEARINSSSPLRYNRQIGEFIVTRAGLYYLYCQVHFDEGKAVYLKLDLLVDGVLALRCLEEFSATAASSLGPQLRLCQVSGLLALRPGSSLRIRTLPWAHLKAAPFLTYFGLFQVH
notes: whole, on cells
B2: purified, soluble Fas ligand (Alexis Biochemicals) (ligand, UniProt P48023 103-281, looked up)
chain: QLFHLQKELAELRESTSQMHTASSLEKQIGHPSPPPEKKELRKVAHLTGKSNSRSMPLEWEDTYGIVLLSGVKYKKGGLVINETGLYFVYSKVYFRGQSCNNLPLSHKVYMRNSKYPQDLVMMEGKMMSYCTTGQMWARSSYLGAVFNLTSADHLYVNVSELSLVNFEESQTFFGLYKL
notes: Commercial soluble form
B3: recombinant Fc-tagged DcR3 (expressed as described in Example 7, purified by Protein A chromatography) (Fc fusion)
chain: VAETPTYPWRDAETGERLVCAQCPPGTFVQRPCRRDSPTTCGPCPPRHYTQFWNYLERCRYCNVLCGEREEEARACHATHNRACRCRTGFFAHAGFCLEHASCPPGAGVIAPGTPSQNTQCQPCPPGTFSASSSSSEQCQPHRNCTALGLALNVPGSSSHDTLCTSCTGFPLSTRVPGAEECERAVIDFVAFQDISIKRLQRLLQALEAPEGWGPTPRAGRAALQLKLRRRLTELLGAQDGALLVRLLQALRVARMPGLERSVRERFLPVH
modifications: biotinylated in the FACS assay (sites not given)
notes: also called biotinylated Fc-tagged DcR3; DcR3-IgG; not shown: Fc tag (Fc region of IgG)

How the values were obtained:
[1] = target: Fas expressed on human HeLa S3 cells (human) (UniProt P25445); assay: cell-based or functional assay
[2] = target: B3; assay: FACS, biotinylated Fc-tagged DcR3 on transiently transfected 293 cells
Excerpt: (§1) Human 293 cells (ATCC CRL 1573) were transiently transfected with empty pRK5 vector (see Example 5) or pRK5 encoding full-length TNF-alpha [Pennica et al., Nature, 312:724-729 (1984)], Fas ligand [Suda et al., Cell, 75:1169-1178 (1993)], LIGHT [Mauri et al., Immunity, 8:21 (1998)], Apo-2 ligand [[WO 97/25428 published Jul. 17, 1997)], Apo-3 ligand (also referred to as TWEAK) [Marsters et al., Current Biology, 8:525 (1998); Chicheportiche et al., J. Biol. Chem., 272:32401 (1997)], or […] (also referred to as TRANCE, RANKL) [Wong et al., J. Biol. Chem., 272:25190 (1997); Anderson et al., Nature, 390:175 (1997); Lacey et al., Cell, 93:165 (1998)].

[3] = target: T1, Fc-tagged ectodomain of TNFR1; assay: co-immunoprecipitation with protein A-sepharose, anti-Fas ligand immunoblot
Method: Precipitates were resolved by SDS polyacrylamide gel electrophoresis (4-20% gradient) under reducing conditions (25 mM dithiothreitol), and visualized by immunoblot, followed by enhanced chemiluminescence detection (Amersham) with rabbit polyclonal anti-Fas ligand antibody (Oncogene Research Products) at 2 microgram/ml.

[4] = target: T2, OPG (also referred to as TRANCE, …); assay: FACS, biotinylated Fc-tagged DcR3 on transiently transfected 293 cells
Excerpt: as §1

Chain of Fas expressed on human HeLa S3 cells (human) (P25445 26-335): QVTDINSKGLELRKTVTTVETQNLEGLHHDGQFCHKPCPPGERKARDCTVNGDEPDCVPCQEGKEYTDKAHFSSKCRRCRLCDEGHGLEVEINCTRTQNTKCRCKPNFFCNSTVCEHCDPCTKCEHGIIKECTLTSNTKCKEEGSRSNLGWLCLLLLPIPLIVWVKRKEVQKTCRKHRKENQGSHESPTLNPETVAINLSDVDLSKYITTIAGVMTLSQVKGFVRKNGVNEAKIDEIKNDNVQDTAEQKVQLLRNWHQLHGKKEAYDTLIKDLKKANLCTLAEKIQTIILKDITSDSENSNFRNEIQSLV

- apoptosis of transfected HeLa S3 cells (annexin binding by FACS) [1]: 25%
Molecule: full-length Fas ligand expressed from pRK5 on transiently transfected cells (from UniProt P48023 1-281)

Molecule: B1
- binding result [2]: no binding

Molecule: B2
- binding result [3]: no binding

Molecule: B3
- binding result [4]: no binding
